The target in this data set is FMRP (UniProt Q06787). The data set is described as follows: biotin-RNA affinity capture. The settings on record: 50 mM Tris-HCl pH 7.4, 2 mM MgCl2, 150 mM KCl, 1 mM EDTA, 1 mM DTT (Schaeffer buffer without tRNA, supplemented with 125 mM NaCl); SoftLink avidin resin …; scale: fold more RNA needed than eEF-1A mRNA for comparable binding.

As to BC1 RNA, annealed, the fold more RNA needed than eEF-1A mRNA amounted to 100.

(Values after article PMC3136132.)
